Measured values: patent US10494415B2, “Insulin-like growth factor 2 (IGF2) binding agents” (Cancer Research Technology Limited, priority 2015, dated 2019)
“Also recorded” adds a separate entry of the source. Marks after values point to notes of the source that are not given here.

What was measured:
[1] = tested on: IGF2^1-67-induced hypoglycaemia; experiment: IGF2-induced hypoglycaemia mouse model; assay type: in vivo
Text: All animal experiments were approved by the animal use ethical committee of Oxford University and fully complied with UK Home Office guidelines (PPL 30/2695). Wild-type C57BL/6J and 129S2 mice were used throughout. Mice were anaesthetised using a rising concentration of isoflurane in oxygenated air and maintained using 2% isoflurane with 2 L min^−1 oxygen. Blood glucose measurements were taken using an Advantage diabetic glucose meter (Roche Diagnostics, Burgess Hill, UK). In order to test the direct inhibition of IGF2-induced hypoglycaemia by Fc-domain 11^AB5, blood glucose levels were allowed to normalise for 30 min prior to taking a baseline blood glucose reading, then either 1 mg kg^−1 IGF2 only (R&D systems), […], Fc-domain 11^RHH, or Fc-domain 11^I1572A ([…]) was injected. Blood glucose measurements were taken every 10 min for the following hour. For the Fc-domain 11^AB5 mouse preloading experiment, 11.7 mg kg^−1 Fc-domain 11^AB5 or PBS, as negative control, was injected immediately after induction of anaesthesia, 30 mins later a baseline blood glucose reading was taken and 1 mg kg^−1 IGF2 ([…]) was injected, readings were then taken every 10 min for the following hour. For the mouse IGF2 preloading experiment, 1 mg kg^−1 IGF2 was injected immediately after induction of anaesthesia, 30 min later a baseline blood glucose reading was taken and either 11.7 mg kg^−1 Fc-domain 11^AB5 ([…]) or PBS was injected, readings were then taken every 10 min for the following hour.

Huh7 cells = experiment: Apoptosis in hepatocellular carcinoma cells; assay type: cell-based, human
IGF2^1-67 = target: T1, IGF2^1-67 (Homo sapiens, UniProt P01344); experiment: SPR of IGF forms on Fc-domain 11 proteins immobilised by antibody capture; assay type: binding; conditions: HBS-EP pH 7.4
T1 construct: Recombinant mature (IGF2^1-67 [7.5 kDa]
Procedure: (§1) SPR analysis of the interaction of recombinant IGF1 and IGF2 forms with Fc-domain 11 proteins immobilised by antibody capture (CM5 chip containing monoclonal mouse anti-human IgG antibody immobilised by amine coupling). Measurements were carried out at 25° C. in HBS-EP buffer (pH 7.4).
(§2) Final kinetic analysis of mutants by SPR was conducted using a Biacore T200 biosensor at 25° C. in either HBS-EP (10 mM HEPES pH 7.4, 150 mM NaCl, 3 mM EDTA, and 0.005% (v/v) surfactant P20) or MES-EP (20 mM MES pH 6.5, 150 mM NaCl, 3 mM EDTA, and 0.005% (v/v) surfactant P20) at a flow-rate of 40 μL min^−1. […] For the analysis of the Fc-domain 11^AB5 interaction, approximately 50 RU of a biotinylated IGF2:biotinylated ubiquitin mixture (1:8 proportion) was immobilized on the CM5-streptavidin chip. This interaction was also analysed by immobilizing the Fc-domain 11^AB5 and Fc-domain 11^AB5-RHH (or Fc-domain 11^I1572A as control) by Human Antibody Capture (monoclonal mouse anti-human IgG antibody immobilised on a CM5 chip by amine coupling, GE Healthcare) with and without human IgG1 Fc fragment (Bethyl Laboratories, UK) in the control flow cell. Increasing concentrations of IGF2^1-67, proIGF2^1-104, proIGF2^1-156 and IGF1 ranging from 0.125 to 32 nM were injected. T200 BiaEvaluation software (GE Healthcare) was used to fit the resulting curves according to a 1:1 binding model. Steady state affinities were determined using the kinetic data, taking the response average at 5 seconds before injection end and for 5 seconds average. Thermodynamic data was performed across the temperature range of 10° C. to 30° C., van't Hoff and Erying plots generated and ΔH, −TΔS and ΔG values determined as previously described.

IGF2^1-156 = target: T2, IGF2^1-156 (Homo sapiens, UniProt P01344); experiment: as above; assay type: binding; conditions: for Kinetics koff: HBS-EP pH 7.4; for Kinetics kon: may be inaccurate (mixture of three isoforms)
T2 construct: pro-IGF2^1-156 [17 kDa]
Procedure: as §1, §2

IGF2^1-104 = target: T3, IGF2^1-104 (Homo sapiens, UniProt P01344); experiment: as above; assay type: binding; conditions: HBS-EP pH 7.4
T3 construct: pro-IGF2 (pro-IGF2^1-104 [11 kDa]
Procedure: as §1, §2

Hep3B cells = experiment: Cell proliferation assay (EdU incorporation); assay type: cell-based, human; conditions: relative to OSI-06
Procedure: EdU incorporation was used to measure cell proliferation (Invitrogen, C10338). Briefly, cells were plated at a density of 2×10^5 cells/well in 6-well plates and cultured in serum free media. After 24 hr of serum starvation, PBS (black) and 1.5 μM Fc-domain 11^I1572 (grey) as negative controls, 0.5 and 1.5 μM Fc-domain 11^AB5 (orange), 1 μM OSI-906 (purple) and 0.1 and 0.5 μM doxycycline (green) as positive controls were added to the different wells and cells were further cultured. After 48 hr, 10 μM EdU was added for 3 hr and cells were then washed and trypsinised, followed by fixation in 4% PFA and permeabilisation in TBS/5% Triton. The Alexa 555 dye was then attached to the EdU molecules by click chemistry following the manufacturer's instructions and the % of EdU incorporation under different conditions was then analysed by flow cytometry.

Hep 3B2.1-7 cells = experiment: In vitro cell viability (CellTiter 96 AQueous); assay type: cell-based, human; conditions: cell line not specified in the sentence (FIG. 10: Hep3B, Huh7)
Procedure: The human hepatocellular carcinoma cell lines Hep 3B2.1-7 and Huh-7D12 were obtained from the ATCC (HB-8065) and the ECACC (Catalogue number 1042712), respectively. Hep 3B2.1-7 was grown in EMEM (Lonza) supplemented with 10% (v/v) fetal bovine serum, 100 U mL-1 penicillin, 100 μg mL-1 streptomycin, and 2 mM Lglutamine Huh-7D12 was grown in DMEM (Sigma) supplemented with 10% fetal bovine serum, 100 U mL-1 penicillin, 100 μg mL-1 streptomycin, and 2 mM L-glutamine. Cells were plated in 96-well plates at a density of 1-2×10^4 cells/well in serum free medium. After 24 hr, Fc-domain 11^AB5 (orange), Fc-domain 11^I1572A as negative control (grey) or OSI-906 (purple) were added to each well to different final concentrations and the cells were incubated for further 48-72 hr. Cell viability was assayed at 48 and 72 hr after Fc-domain 11^AB5 treatment using the CellTiter 96® AQueous Non-Radioactive Cell Proliferation Assay (Promega). The half maximal inhibitory concentration (IC50) was calculated using graph prism.

IGF1 = IGF1 (Homo sapiens, UniProt P05019); experiment: SPR of domain 11 mutants on immobilised biotinylated IGF1 (specificity); assay type: binding
Text: Surface plasmon resonance (SPR) binding analysis of recombinant M6P/IGF2R domain 11 mutants interaction with IGF2. Kon indicates association (on) rate; koff, dissociation (off) rate; RU, response units. Binding to IGF2 assessed with BIAcore T200 using purified biotinylated IGF2 and IGF1 on a streptavidin biosensor chip. Recombinant proteins were expressed either in E. coli and/or P. pastoris. All the mutants in the FG and CD loops are on the domain 11^AB5 background for the AB loop unless otherwise stated. All experiments were carried out at 25° C. in HBS-EP buffer (pH 7.4), were repeated 2-5 times on two independent BIAcore chips. nd=not determined. Data for KD expressed as mean of each experiment, and means of kon and koff are shown.
Final kinetic analysis of mutants by SPR was conducted using a Biacore T200 biosensor at 25° C. in either HBS-EP (10 mM HEPES pH 7.4, 150 mM NaCl, 3 mM EDTA, and 0.005% (v/v) surfactant P20) or MES-EP (20 mM MES pH 6.5, 150 mM NaCl, 3 mM EDTA, and 0.005% (v/v) surfactant P20) at a flow-rate of 40 μL min^−1. […] This interaction was also analysed by immobilizing the Fc-domain 11^AB5 and Fc-domain 11^AB5-RHH (or Fc-domain 11^I1572A as control) by Human Antibody Capture (monoclonal mouse anti-human IgG antibody immobilised on a CM5 chip by amine coupling, GE Healthcare) with and without human IgG1 Fc fragment (Bethyl Laboratories, UK) in the control flow cell. […]

IGF2 = IGF2 (Homo sapiens, UniProt P01344); experiment: SPR (Biacore T200) of recombinant IGF2R domain 11 mutants on immobilised biotinylated IGF2; assay type: binding; parameters: purchased GroPep
Outline: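 Biotinylated IGF2 (or IGF1) captured on streptavidin chip; domain 11 mutants (E. coli or P. pastoris, AB5 background) injected at 25 °C, 40 μL/min, in HBS-EP pH 7.4 or MES-EP pH 6.5. kon/koff from 1:1 fit; KD as mean of 2-5 repeats.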

[2] = pre-loading, co-injection or post-loading

T3 sequence (P01344 25-128): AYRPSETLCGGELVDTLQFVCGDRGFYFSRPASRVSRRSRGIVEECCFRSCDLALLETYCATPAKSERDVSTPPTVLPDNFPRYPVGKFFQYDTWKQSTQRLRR
IGF2, sequence (P01344 25-91): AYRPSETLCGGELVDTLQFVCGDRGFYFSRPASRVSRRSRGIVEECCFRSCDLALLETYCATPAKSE
T2 sequence (P01344 25-180): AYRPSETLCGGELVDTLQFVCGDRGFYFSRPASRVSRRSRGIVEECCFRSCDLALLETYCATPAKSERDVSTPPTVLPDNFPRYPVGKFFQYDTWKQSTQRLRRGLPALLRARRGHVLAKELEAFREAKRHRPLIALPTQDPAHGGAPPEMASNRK
T1 sequence (P01344 25-91): as the sequence (P01344 25-91) above
IGF1, sequence (P05019 49-118): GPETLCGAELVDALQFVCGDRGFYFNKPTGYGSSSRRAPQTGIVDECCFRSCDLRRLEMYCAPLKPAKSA

Row | Molecule | IGF2-induced hypoglycaemia (blood glucose) ([1]; administered 30 min after 1 mg kg^−1 IGF2^1-67) | IGF2-induced hypoglycaemia (blood glucose) [1, 2] | IGF2-induced hypoglycaemia (blood glucose) ([1]; preloading 30 min before 1 mg kg^−1 IGF2^1-67) | IGF2-induced hypoglycaemia (blood glucose) ([1]; premixed / co-injected with 1 mg kg^−1 IGF2^1-67, molar ratio 1:1) | Apoptosis (Huh7 cells) | Kinetics koff (IGF2^1-67) | Kinetics kon (IGF2^1-67) | Kinetics koff (IGF2^1-156) | Kinetics kon (IGF2^1-156) | Kinetics koff (IGF2^1-104) | Kinetics kon (IGF2^1-104) | Proliferation (Hep3B cells) | Inhibitory effect on cell lines (Hep 3B2.1-7 cells) | IGF2 specificity with respect to IGF1 (IGF1) | Kinetics koff (IGF2; Table 1, 25° C., HBS-EP pH 7.4) | Kinetics kon (IGF2; Table 1, 25° C., HBS-EP pH 7.4) | Kinetics koff (IGF2; Table 3, 25° C., HBS-EP pH 7.4) | Kinetics kon (IGF2; Table 3, 25° C., HBS-EP pH 7.4) | Kinetics koff (IGF2; Table 4, MES-EP pH 6.5) | Kinetics kon (IGF2; Table 4, MES-EP pH 6.5)
1 | Fc-domain 11^AB5: human IgG1 Fc-fusion of domain 11^AB5 (protein, left off: a dimerising Fc or GST, human IgG1 Fc-fusion of domain 11^AB5) NEHDDCQVTNPSTGHLFDLSSLSGRAGFTAAYAKGWGVYMSICGENENCPPGVGACFGQTRISVGKANKRLRYVDQVLQLVYKDGSPCPSKSGLSYKSVISFVCRPEAGPTNRPMLISLDKQTCTLFFSWHTPLACEQAT | can reverse IGF2-induced hypoglycaemia | significant abrogation of the hypoglycaemic effects | protects against IGF2-induced hypoglycaemia | abrogation; also recorded: prevents IGF2-induced hypoglycaemia | promoted | 0.025 s⁻¹ | 6.47e+06 M⁻¹ s⁻¹ | 0.0009 s⁻¹ | 4.19* ×10^6 M^−1s^−1 | 0.0069 s⁻¹ | 1.287e+07 M⁻¹ s⁻¹ | inhibited | – | – | – | – | – | – | – | –
2 | Fc-domain 11^I1572A: low binder Fc-domain 11 fusion with I1572A, non-IGF2 binding control (protein, left off: a dimerising Fc or GST) NEHDDCQVTNPSTGHLFDLSSLSGRAGFTAAYSEKGLVYMSICGENENCPPGVGACFGQTRASVGKANKRLRYVDQVLQLVYKDGSPCPSKSGLSYKSVISFVCRPEAGPTNRPMLISLDKQTCTLFFSWHTPLACEQAT | – | not detected | – | – | – | – | – | 0.0008 s⁻¹ | 0.29* ×10^6 M^−1s^−1 | 0.002 s⁻¹ | 520000 M⁻¹ s⁻¹ | – | no effect | – | – | – | – | – | – | –
3 | AB5: IGF2R domain 11 with five AB loop mutations S1543A, E1544K, K1545G, G1546W, L1547G (YAKGWG) (protein) MKSNEHDDCQVTNPSTGHLFDLSSLSGRAGFTAAYAKGWGVYMSICGENENCPPGVGACFGQTRISVGKANKRLRYVDQVLQLVYKDGSPCPSKSGLSYKSVISFVCRPEAGPTNRPMLISLDKQTCTLFFSWHTPLACEQATECSV | – | – | – | – | – | – | – | – | – | – | – | – | – | retained IGF2 specificity | 0.0208 s⁻¹ | 4.21e+06 M⁻¹ s⁻¹ | 0.0208 s⁻¹ | 4.21e+06 M⁻¹ s⁻¹ | 0.0180 s⁻¹ | 4.17e+06 M⁻¹ s⁻¹
